In patent US20220002363A1, “COMPOSITIONS AND METHODS FOR TREATING PULMONARY DISEASE” (United States Government As Represented By The Department …, priority 2020, published 2022):
Where two headings read alike, the source gives them in different places.

Columns and labels:
WT-sFasL = molecular target: T1, WT-sFasL (Homo sapiens, UniProt P48023); assay: Attenuation of WT-sFasL-induced caspase 3/7 activity in murine lung epithelial cells (LA4); assay type: cell-based, mouse
T1 construct: made in house
T1 sequence (P48023 103-281): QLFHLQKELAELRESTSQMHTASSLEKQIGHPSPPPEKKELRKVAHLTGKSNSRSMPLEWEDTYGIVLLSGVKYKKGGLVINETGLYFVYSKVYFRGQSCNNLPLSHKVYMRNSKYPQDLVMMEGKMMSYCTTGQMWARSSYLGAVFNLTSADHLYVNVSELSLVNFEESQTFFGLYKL
Procedure: FIGS. 2A-D show the mut-sFasL has inhibitory properties. Highly Fas-sensitive Jurkat cells (FIG. 2A), primary human lung small airway epithelial cells (SAEC, FIG. 2B) or murine lung epithelial cells (LA4, FIG. 2D) were incubated with serial dilutions of mutated FasL, (mut sFasL). […] As a confirmatory test, the experiment was repeated using SAEC and an annexin-V translocation assay (FIG. 2C). WT=wild type (no mutant). […] Each dot represents individual data; lines represent means±SD. *=P<0.05; **=P<0.01, ***P<0.001 when compared to WT. One way ANOVA with SIdak's post hoc analysis.
Mouse lung epithelial LA-4 cells were obtained from ATCC (catalogue number CCL-196, lot number 3404534). This cell line is derived from a A/He mouse lung adenoma (Stoner G, et al. Cancer Res. 1975; 35(8):2177-85). […]
Measurements of apoptotic cascade activation. Apoptotic cascade activation was assessed by determining caspase 3/7 activity and Annexin V externalization. Caspase-3/7 activity was measured using a commercial substrate (Caspase-Glo 3/7 Assay, Promega, Madison, Wis., Cat #G8090) following manufacturer's instructions. Annexin V was measured with a luminescent commercial assay that allows for measurement of annexin V externalization in adherent cells (RealTime-Glo Annexin V assay, Promega, Madison, Wis., Cat #JA1011). Luminescence was measured with a Synergy H4 Microplate Reader (BioTek, Winooski, Vt.). […]

Jurkat cells = assay: Caspase 3/7 activity in Jurkat cells (bioactivity of sFasL proteins); assay type: cell-based, human
Procedure: Jurkat cells were incubated for 5 hours with wild type (WT) sFasL or a sFasL mutant (mut sFasL) in which 8 charged amino acids were changed to alanine. Caspase 3/7 activity was measured after incubation with the caspase 3/7 substrate at room temperature for 30 minutes. Data is shown as arbitrary luminescence units. […] Each dot represents individual data. Data analyzed by 2-way ANOVA with Sidak post-hoc analysis. ** p<0.01, *** p<0.001 compared to the respective concentration of mut-sFasL.
Methods. Cells and cell culture. To test Fas responses in vitro, the highly-Fas sensitive cell line, Jurak, was used. Jurak cells are human T lymphocyte cells first isolated from the peripheral blood of a child with acute cell leukemia (Gillis S and Watson J. J Exp Med. 1980; 152(6):1709-19). Jurak cells are exquisitely sensitive to Fas ligation and are commonly used as a model cell in studies involving the Fas/FasL system; here they are used as such, rather than as a model of T-cell responses. Jurak cells (human leukemic T lymphocytes) were purchased from ATCC (Clone TIB-152) and grown at 37° C. and 5% CO2 in RPMI-1640 medium supplemented with 10% heat-inactivated fetal bovine serum. Cells were authenticated using short tandem repeat analysis. Mycoplasma status was weakly positive by PCR (Venor GeM Mycoplasma Detection Kit, Sigma-Aldrich, Cat #MP0025). The Jurak data was confirmed in primary human lung epithelial cells and the murine alveolar epithelial cell line LA4, which are described herein.
Measurements of apoptotic cascade activation. Apoptotic cascade activation was assessed by determining caspase 3/7 activity and Annexin V externalization. Caspase-3/7 activity was measured using a commercial substrate (Caspase-Glo 3/7 Assay, Promega, Madison, Wis., Cat #G8090) following manufacturer's instructions. Annexin V was measured with a luminescent commercial assay that allows for measurement of annexin V externalization in adherent cells (RealTime-Glo Annexin V assay, Promega, Madison, Wis., Cat #JA1011). Luminescence was measured with a Synergy H4 Microplate Reader (BioTek, Winooski, Vt.).
Results. Mutations of the charged amino acids in the stalk region of sFasL influence its biological activity in vitro. To test whether the structure of the stalk region of sFasL influences its biological activity, a mutant sFasL molecule (mut-sFasL) was cloned in which 8 charged amino acids in the 26 amino acid stalk region were changed to the non-charged amino acid alanine (FIG. 7). DNA sequencing data for the FasL constructs was also carried out: DNA sequence of wild type sFasL construct and eight different clones. The mutant sFasL clone used in the study is clone 1. […]

B1: mut-sFasL: mutant sFasL molecule in which 8 charged amino acids in the 26 amino acid stalk region were changed to alanine (protein)
chain: QLFALQAALAALAASTSQMATASSLAKQIGHPSPPPEKKELRKVAHLTGKSNSRSMPLEWEDTYGIVLLSGVKYKKGGLVINETGLYFVYSKVYFRGQSCNNLPLSHKVYMRNSKYPQDLVMMEGKMMSYCTTGQMWARSSYLGAVFNLTSADHLYVNVSELSLVNFEESQTFFGLYKL
- inhibition of WT-sFasL-induced caspase 3-7 activity (WT-sFasL): inhibited the ability of WT-sFasL to induce caspase 3-7 activity
- inhibition of WT-sFasL-induced caspase 3-7 activity (WT-sFasL; listed as 8-mutant protein): an inhibitory effect of the 8-mutant protein was detected
- bioactivity (caspase 3/7) at the highest concentration tested (Jurkat cells; 810 ng/mL): retained some bioactivity
- caspase 3/7 activity (Jurkat cells; 5 hours incubation, compared to WT-sFasL): significantly reduced caspase 3/7 activity compared to WT-sFasL
- activity relative to the wild-type sFasL (Jurkat cells; caspase 3/7): approximately two orders of magnitude less than the wild-type sFasL
- intrinsic caspase-3/7 activation (Jurkat cells; highest dose of 2430 ng/mL (corresponds to 1:81 WT:mut molar ratio)): leads to intrinsic caspase-3/7 activation
